# Assay results published in publication PMC2834417.
# Values joined by “and” are separate entries in the source; they are usually repeats but may differ in a detail not shown here. Equal entries are not always repeated.
# Biological target: Wild type Cav1.2 channel with EGFP fused to its C-terminus (rabbit) (UniProt P15381)
# Experiment: FRET or BRET
# Chain of UniProt P15381 (P15381 whole entry, the tested form may be a part): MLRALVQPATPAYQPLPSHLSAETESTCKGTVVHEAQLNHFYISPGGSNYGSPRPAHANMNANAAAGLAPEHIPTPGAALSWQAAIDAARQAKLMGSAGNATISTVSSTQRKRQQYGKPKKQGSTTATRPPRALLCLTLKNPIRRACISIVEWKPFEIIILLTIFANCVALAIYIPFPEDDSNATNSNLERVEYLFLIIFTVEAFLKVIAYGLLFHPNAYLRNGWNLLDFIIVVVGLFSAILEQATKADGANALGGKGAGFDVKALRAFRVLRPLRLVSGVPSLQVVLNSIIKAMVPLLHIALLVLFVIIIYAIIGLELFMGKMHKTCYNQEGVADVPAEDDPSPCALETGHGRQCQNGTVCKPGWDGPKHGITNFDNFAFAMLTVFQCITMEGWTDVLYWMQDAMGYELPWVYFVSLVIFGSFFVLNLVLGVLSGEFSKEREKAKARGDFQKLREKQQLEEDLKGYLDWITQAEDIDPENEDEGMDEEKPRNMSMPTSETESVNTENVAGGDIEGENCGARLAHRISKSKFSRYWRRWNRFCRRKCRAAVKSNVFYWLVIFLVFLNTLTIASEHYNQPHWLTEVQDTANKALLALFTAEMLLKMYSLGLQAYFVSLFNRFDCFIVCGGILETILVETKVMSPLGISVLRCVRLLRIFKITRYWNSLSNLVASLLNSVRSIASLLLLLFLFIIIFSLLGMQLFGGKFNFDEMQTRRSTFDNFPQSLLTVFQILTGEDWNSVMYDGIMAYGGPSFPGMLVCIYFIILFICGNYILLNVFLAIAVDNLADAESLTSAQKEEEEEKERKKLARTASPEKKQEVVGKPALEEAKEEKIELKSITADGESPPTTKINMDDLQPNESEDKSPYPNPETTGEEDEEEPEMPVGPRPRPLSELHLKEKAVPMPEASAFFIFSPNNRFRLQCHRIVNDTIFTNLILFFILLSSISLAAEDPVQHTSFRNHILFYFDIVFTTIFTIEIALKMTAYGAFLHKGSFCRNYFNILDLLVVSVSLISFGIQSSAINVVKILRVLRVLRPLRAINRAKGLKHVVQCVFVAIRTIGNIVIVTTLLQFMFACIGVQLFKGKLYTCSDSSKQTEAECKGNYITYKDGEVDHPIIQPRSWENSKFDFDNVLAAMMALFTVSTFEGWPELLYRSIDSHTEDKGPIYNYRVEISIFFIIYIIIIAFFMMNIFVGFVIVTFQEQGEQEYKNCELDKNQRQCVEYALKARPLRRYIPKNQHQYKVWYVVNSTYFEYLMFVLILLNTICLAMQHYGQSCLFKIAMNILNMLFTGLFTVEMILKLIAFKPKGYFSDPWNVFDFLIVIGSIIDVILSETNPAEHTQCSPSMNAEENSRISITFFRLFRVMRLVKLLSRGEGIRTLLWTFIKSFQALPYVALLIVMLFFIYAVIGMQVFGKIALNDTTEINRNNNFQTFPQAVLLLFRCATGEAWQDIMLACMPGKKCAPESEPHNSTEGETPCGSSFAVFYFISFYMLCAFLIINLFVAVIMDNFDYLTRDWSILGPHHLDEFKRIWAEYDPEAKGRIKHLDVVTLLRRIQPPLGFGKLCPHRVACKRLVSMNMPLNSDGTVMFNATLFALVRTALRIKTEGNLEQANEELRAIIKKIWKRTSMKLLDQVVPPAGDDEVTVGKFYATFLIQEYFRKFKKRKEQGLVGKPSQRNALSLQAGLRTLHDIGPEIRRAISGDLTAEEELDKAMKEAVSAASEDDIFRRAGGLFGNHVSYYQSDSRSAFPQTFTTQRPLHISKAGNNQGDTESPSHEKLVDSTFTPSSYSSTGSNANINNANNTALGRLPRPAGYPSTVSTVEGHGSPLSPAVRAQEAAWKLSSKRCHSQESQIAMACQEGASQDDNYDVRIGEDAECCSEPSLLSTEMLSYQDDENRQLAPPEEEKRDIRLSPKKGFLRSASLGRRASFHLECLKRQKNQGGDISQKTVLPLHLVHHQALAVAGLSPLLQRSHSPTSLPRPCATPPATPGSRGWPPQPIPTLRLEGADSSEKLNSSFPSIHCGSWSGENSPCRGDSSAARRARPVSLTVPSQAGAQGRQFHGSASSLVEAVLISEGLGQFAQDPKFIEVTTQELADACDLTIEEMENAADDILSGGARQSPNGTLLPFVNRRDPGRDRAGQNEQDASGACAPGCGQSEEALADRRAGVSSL
substance,measurement,value
Calmodulin fused with tag-RFP (from UniProt P0DP23 1-149) (natural protein),FRET,0.32 and 0.21 and 0.33
